This note sets out measurements from patent publication EP0569583B1, “[…] OF POLYETHER-S[…] AGENTS IN DIAGNOSIS AND THERAPY” (Deutsches Krebsforschungszentrum Stiftung des öffentlichen …, priority 1991, dated 1993).

For data set [1], the system named is experimentelle Tumoren und Xenotransplantate. Kind of data set: Concentration of the radiolabelled agents in experimental tumours and human xenografts. The data set is classed as in vivo, Ratte; Nacktmaus. The conditions noted are these: 300 µC = 11,1 MBq administered; all tumour models tested (Beispiel 2 compound only in Walker Carcinosarcom, Osteosarcom, Ovarialcarcinom O-342). The text has this:
Die Konzentrierung dieser Mittel wurde an folgenden experimentellen Tumoren und an folgenden Tiermodellen geprüft:
Alle diese experimentellen Tumoren und Xenotransplantate wurden mit den Verbindungen a und c gemäß Beispiel 1 (also 1a und 1c) und drei davon, nämlich das Walker Carcinosarcom, das Osteosarcom und das Ovarialcarcinom (O-342) auch mit dem Diphosphat gemäß Beispiel 2 untersucht.
(§1) Bei allen diesen Anwendungsversuchen wurden immer 300 µC = 11,1 MBq verabreicht Es zeigten sich mit den eingesetzten Mitteln, nämlich 1a und 1c und die Verbindung aus Beispiel 2 eine Konzentration von mindestens 30% des Mittels an der gewünschten Stelle, also am Tumor. Die beigefügte Fig. 4 zeigt das Bild einer BDIX-Ratte mit Ovarialcarcinom 42 h nach Injektion, die mit ^131J-HOPAD-CMPEG, also ^131J-Hydroxyphenyl-1-aminome-than-1,1-diphosphonat-Cyanurchlorid aktiviertes Polyethylenglykol (n=ca. 100 bis 110) in einer Menge von 300 µC behandelt war. Das Bild zeigt, daß ganz unten, im Tumor ca. 30+/-2% des Mittels konzentriert sind, während in der Mitte die Leber ca. 10% zeigt und die Schilddrüse, die oberhalb der Leber sichtbar ist, weit weniger als 2% des Mittels aufgenommen hat Diese %-Angaben beziehen sich auf die Gesamtmenge an die mit radiojodmarkierten Mittel im Gesamtkörper der Ratte.
For orientation: A xenograft is tissue or cells of one species grown in another, often human tumour cells in immunodeficient mice.

In a further data set the test system is Ovarialcarcinom. The data set can be described thus: Whole-body distribution of radioiodine activity in tumour-bearing rat (Fig. 4, Fig. 5). Type of data set: in vivo, BDIX-Ratte. The method, then: as §1
Die beigefügte Fig. 5 zeigt die Messung einer mit ^131I-TOP-(CMPEG)4 behandelten BD IX Ratte (auch hier Ovarialcarcinom). Es zeigt sich ein ähnliches Ergebnis wie das von Fig. 4.
Von der gesamten Körperaktivität an radioaktivem Jod finden sich nach 150 h etwa 23% im Tumor, etwa 12% in der Leber, etwa 5% im Blut und etwa 3-4% jeweils in den Muskeln und in der Schilddrüse. Der Rest ist natürlich, wie auch bei der Aufnahme von Fig. 4, über den restlichen Körper verteilt.

The mark [2] stands for this setting: BD IX Ratte with Ovarialcarcinom, after 150 h, % of total body activity of radioactive iodine (Fig. 5).
The mark [3] stands for this setting: BDIX-Ratte with Ovarialcarcinom, 42 h after injection, 300 µC, % of total labelled agent in whole body (Fig. 4).

As to “^131I-Tetra(hydroxyphenyl)-porphin-(CMPEG)4 [1a]”, the “Konzentration des Mittels an der gewünschten Stelle, also am Tumor” value in data set [1] was no less than 30%. In addition, in the data set with Ovarialcarcinom (setting [2]), the “im Blut” value is roughly 5%, the “im Tumor” value was roughly 23%, the “in den Muskeln” value was 3-4% and the “in der Leber” value is on record as roughly 12%. Moreover, in the data set with Ovarialcarcinom (setting [2]), the “in der Schilddrüse” value was 3-4%.

As for “^131J-Hydroxyphenyl-1-aminome-than-1,1-diphosphonat-Cyanurchlorid aktiviertes Polyethylenglykol (n=ca. 100 bis 110) [Beispiel 2]”, the “Konzentration des Mittels an der gewünschten Stelle, also am Tumor” value in data set [1] is listed as no less than 30%. Also, in the data set with Ovarialcarcinom (setting [3]), the Leber entry is “ca. 10%”, the Schilddrüse is less than 2% and the “im Tumor konzentriert” value is recorded as “ca. 30+/-2%”.

In the case of “^111-In-Tetra-(hydroxyphenoxy)-phthalocyanin-(CMPEG)4 [1c]”, in data set [1], the “Konzentration des Mittels an der gewünschten Stelle, also am Tumor” value was no less than 30%.
